{"source": "the DeepSol protein solubility set", "data": [{"assay": "soluble on expression in E. coli; label from the status in PepcDB or PDB records", "values": [{"sequence": "MSLSNKIFTHSLPMRYADFPTLVDALDYAALSSAGMNFYDRRCQLEDQLEYQTLKARAEAGAKRLLSLNLKKGDRVALIAETSSEFVEAFFACQYAGLVAVPLAIPMGVGQRDSWSAKLQGLLASCQPAAIITGDEWLPLVNAATHDNPELHVLSHAWFKALPEADVALQRPVPNDIAYLQYTSGSTRFPRGVIITHREVMANLRAISHDGIKLRPGDRCVSWLPFYHDMGLVGFLLTPVATQLSVDYLRTQDFAMRPLQWLKLISKNRGTVSVAPPFGYELCQRRVNEKDLAELDLSCWRVAGIGAEPISAEQLHQFAECFRQVNFDNKTFMPCYGLAENALAVSFSDEASGVVVNEVDRDILEYQGKAVAPGAETRAVSTFVNCGKALPEHGIEIRNEAGMPVAERVVGHICISGPSLMSGYFGDQVSQDEIAATGWLDTGDLGYLLDGYLYVTGRIKDLIIIRGRNIWPQDIEYIAEQEPEIHSGDAIAFVTAQEKIILQIQCRISDEERRGQLIHALAARIQSEFGVTAAIDLLPPHSIPRTSSGKPARAEAKKRYQKAYAASLNVQESLAEGHHHHHH", "soluble on expression in E. coli": "soluble"}, {"sequence": "MSLSNYSTGELAKLCNVTTRTIQYYDRKGILKPQGFTEGKRRVYTEQQRQTLELILLLKDLGCALSDIDMLLKGEGTLKTLNTLLTMKQQEINQQVKQQQAVLNKIKNVQYYVNEGHHHHHH", "soluble on expression in E. coli": "not soluble"}, {"sequence": "MSLSPEDLEATGARLVEELVEYRTRTQVSTAVIGMSGGVDSALTAALFKAAGWHVMGHTLPIEQDPTETDRGIEACAALGIEHRPLDLSGAYEAALAQLGELDPDLLSSDETPARTRRGNLRARLRMMTLYDQAHRLGGLVAGTDNFSELTAGFWTLHGDVGDLAPVQSLLKSWEVPWLARAYRVPEATWRAMPTDGLGIGGGDEAQIGATYLEWDILQFALAEALGDDPGLATRHLAFALRMDADRHAQEVLGTLIARMRATWHKRLNEGHHHHHH", "soluble on expression in E. coli": "not soluble"}, {"sequence": "MSLSQIVAEVDGYKVTKEELDTLFHVFWKRITHLSSAKPTQEDKRIFLIDYVADLLILKEAKKMGIEVSEKEINDFIRKYVGRKIKEKSVINAVKAEILVEKLVDKLMKEQELNPSEDILRAYYEFYKREFYRPSSVKLLGIYVKSKKEAERISQILKQGEVPSTEDVKVSKPLWYSIPTLPKYIRRNFRTLSVGEVSKPIKINDGYLVFKILDKKEGHHHHHH", "soluble on expression in E. coli": "soluble"}, {"sequence": "MSLSRAFLVAAPSSGSGKTTITLGLLRLFARRGMAVQPFKCGPDYLDTMLHAMAASTGETARPGLNLDTFMASKEHVRSLFARNAASADISVIEGVMGLFDGAEKSDGSSAEIAALLGLPVIMVIDGSKIAYSAAPILYGFKHFDPSVKVAGVIFNRVGSASHYSHLEAAAKDVGVEPLGYLPRNSDITISERHLGLNTSAEYDREKLIDAMAEHIEKTVNIERLLDVARIELPEIEQAQPVTKKLDKVIAVARDEAFNFIYHDNLETLKRYGEVRFFSPLHDRELPKADLVYLAGGYPELHAEALAANKTMRKAIAEWCRNRGATWAECGGLMYLGKTLTLADGAAHPMCGVLDLDTTMQEARLTLGYRKVYPAGADGVELRGHEFHYSRIWRQGEIDTIAEIRNARGQQVGTKLFRVGNTIASYLHLYWGEHDYLANWFDVLREGHHHHHH", "soluble on expression in E. coli": "soluble"}, {"sequence": "MSLSRLPVIVGFGGYNAAGRSSFHHGFRRMVIESMDPQARQETLAGLAVMMKLVKAEGGRYLAEDGTPLSPEDIERRYAERIFASTLVRRIEPQYLDPDAVHWHKVLEATPAEGQALTFKASPKQLPEPLPGNWSVTPAADGEVLVSIHERCEFKVDSYRPLTVKSAGQLPTGFEPGELYNSRFHPRGLQMSVVAATDAIRSTGIDWQTIVDNVQPDEIAVFSGSIMSQLDDNGFGGLMQSRLKGHRVSAKQLPLGFNSMPTDFINAYVLGSVGMTGSITGACATFLYNLQKGIDVITSGQARVVIVGNSEAPILPECIEGYSAMGALATEEGLRLIEGRDEVDFRRASRPFGENCGFTLAESSQYVVLMDDELALRLGADIHGAVTDVFINADGFKKSISAPGPGNYLTVAKAVASAVQIVGLDTVRHASFVHAHGSSTPANRVTESEILDRVASAFGIDGWPVTAVKAYVGHSLATASADQLISALGTFKYGILPGIKTIDKVADDVHQQRLSISNRDVRQDKPLEVCFINSKGFGGNNASGVVLSPRIAEKMLRRRHGEAAFAAYVEKREQTRGAARAYDQRALQGDLEIIYNFGQDLIDEQAIEVSAEQVTVPGFSQPLVYKKDARFSDMLDEGHHHHHH", "soluble on expression in E. coli": "soluble"}, {"sequence": "MSLSRPQFDPSAYAAQLEDKKSRLAGLLAPFAAPAPEVFESPREHYRLRAEFRLWRETGNEKRHYAMFEQGDKHTPILLEDFPIASRRINELMPRLKAAWADPALGFKLFQVEFLTTLAGDALITLCYHRPIDDAWRQAAEKLAAELGVNLVGRSRGKRIVVGRDYVEEELSVAGRRFRYRQPEGAFTQPNGEVNQKMLGWAYEALGQRDDDLLELYCGNGNFTLPLATRVRKVLATEISKSSVNAALANLADNAVDNVSLVRLSAEELTQALNEVRPFRRLADIDLKSYAFGSVFVDPPRAGMDPDTCELARRFERILYISCNPETLAQNIAQLHDTHRISRCALFDQFPYTHHMESGVLLEEGHHHHHH", "soluble on expression in E. coli": "soluble"}, {"sequence": "MSLSRVTEIRYVGYGVKDFDAEKAFYADVWGLEPVGEDANNAWFKAQGADEHHVVQLRRADENRIDVIALAADSRSDVDALRASVEAAGCKVASEPAVLATPGGGYGFRFFSPDGLLFEVSSDVAKGAKRDLARWEGVPVKISHIVLHSPNHQDMVKFFTDVLGFKVSDWLGDFMCFLRCNSAHHRIAILPGPPCLNHVAYDMLSVDDMMRGAHRLKVKGIDIGWGPGRHTAGNNTFSYFVTPGGFVTEYTSELEEVDFDTHQYKVHVPAPMVMDQWGIGTGGPQTLPHPHANPGLFQTAEAEGHHHHHH", "soluble on expression in E. coli": "soluble"}, {"sequence": "MSLSSDRLIYLPLGGAGEIGMNAYVYGYGKPGKERLILVDLGVTFPDMDTTPGVDLIMPDIAWLAKNRDRLEAVFITHAHEDHVGAVAHLYDRLGAPVYARAFTANIARRKMGEHGHPDEAVTTVSAWPEMTEAGPFQVGFVPLSHSIPESSGLVIDTPAGRIVHSGDFKLDENPIVGEAFDRKLWEEVAKPGVKVFACDSTNVMSRHPGRSESSVGGEIEKLVGTAEGVFVATTFASNVARVLTLAEAGQRAGRSVCLLGRAMRRMIEAAIETGVLADFPRTVSPEDARNIPRENLMLIVTGSQGERRAASAQLANGKYQGIELKEGDMFLFSSKTIPGNERGVLRIVNQLSEKGVDVIDDSSGLYHVSGHANRPDLETMHEILQPEILVPMHGEHRHLREHVKLADKRGIKGILAVNGMMIDLTGEGHHHHHH", "soluble on expression in E. coli": "soluble"}, {"sequence": "MSLSSNRGVVYIGPGKVEVQDIADPKLEAPDRRKIAHGVILKVVSTNICGSDQHMVRGRTTAEPGLILGHEITGEVIEKGADVEMLEIGDIVSVPFNVACGRCRCCREGDTGVCLTVNPSRAGGAYGYVDMGGWIGGQARYVMVPYADFNLLKFPDRDRAMAKIRDLTMLSDILPTGFHGAWKAGVGVGSVVYVAGAGPVGLAAAASARILGAAVVMVGDFNKERLEHARKVGFEPVDLSKGDDLPEMIAQITGTPEVDAAIDAVGFEARGHSGGEQPAIVLNQMMQITRAAGQIGIPGLYVTEDPGAVDDAARHGSLSMRFGLGWAKAQSFHTGQTPVLKYNRQLMQAILHDRLPIADIVNATVIPLDQAVQGYESFDRGVAKKFVLDPHGMLAAEGHHHHHH", "soluble on expression in E. coli": "not soluble"}, {"sequence": "MSLSVPRSGLSVQMAQPARPLRADAARNRARILGVAYEAFATEGLSVPIDEIARRAGVGAGTVYRHFPTKEALCAAVIGDRMPHLVDDGYVLLKSAGPGEALFTYLRSLVLHWGATDRGLVDALAGAGGIDILGVAPDAEDAFLTILSDLLYAAQYAGTARTDVGVREVKSILVGCQAMEAYNSALAERVTDVVVDGLRAAREGHHHHHH", "soluble on expression in E. coli": "soluble"}, {"sequence": "MSLSWEYEYYPHSLFCHHKEREGMHYIEGAYWSAEPDLPYLHKRKILMLVEDVWLLVDDIRCQGQHEALTQFILDKDVTYQDGKINQLRLWSEVDFDLEDTIISPKYNELERSSKLTKRQFFENQMLDYTIIAHESFEIIRHSVYQTDDREVENALAFEVKNDETDKLILLLSEDIRVGEKLCLVDGTKMRGKCLVYDKINERMIRLQCEGHHHHHH", "soluble on expression in E. coli": "soluble"}, {"sequence": "MSLSYKKIAIITGANSGFGKEFLKLLINEEEITEIWAVARNKARLNQLVDEFGSKVKIFSKDLSKIEEVKEIGTFLSKENVCIKYLINNAGFAKFCSYNDLSIDESINMIDLNISAVVALGLICIPYMQKGSHIMNISSQASFQPLPYQNIYSSTKAFIRNYTRALNVELKSKGINAIAVCPGWMSTNLFKRGIVVAEKGTKNFPGIVSPDVVAKKALKDAKKNKDISVYGINTKSSHLLAKLLPQKMMMKVWLMQQHIKEGHHHHHH", "soluble on expression in E. coli": "soluble"}, {"sequence": "MSLTADPPACTVPAAGVSSTHKLVNGGAEKIVFKIKSSNNNEYRIAPVFGFVDPSGSKDVVITRTAGAPKEDKLVVHFASAPADATDAQAAFVAVAPAGTVTIPMSATA", "soluble on expression in E. coli": "soluble"}, {"sequence": "MSLTAHGLCEFIDASPSPFHVCATVAGRLLGAGYRELREADRWPDKPGRYFTVRAGSLVAWNAEQSGHTQVPFRIVGAHTDSPNLRVKQHPDRLVAGWHVVALQPYGGVWLHSWLDRDLGISGRLSVRDGTGVSHRLVLIDDPILRVPQLAIHLAEDRKSLTLDPQRHINAVWGVGERVESFVGYVAQRAGVAAADVLAADLMTHDLTPSALIGASVNGTASLLSAPRLDNQASCYAGMEALLAVDVDSASSGFVPVLAIFDHEEVGSASGHGAQSDLLSSVLERIVLAAGGTREDFLRRLTTSMLASADMAHATHPNYPDRHEPSHPIEVNAGPVLKVHPNLRYATDGRTAAAFALACQRAGVPMQRYEHRADLPCGSTIGPLAAARTGIPTVDVGAAQLAMHSARELMGAHDVAAYSAALQAFLSAELSEAEGHHHHHH", "soluble on expression in E. coli": "not soluble"}, {"sequence": "MSLTASDQFNSTHSAVDQYAELVLHNGRMYTLDPAQPWADAVAIRQGKLIAVGSLASLASLIGPNTRQHDLDGAFCMPGLHDMHTHPDLALAPRYADDLDVGIEDPTPEQLAAAIHAYADSHPGDGWIYGQYWVRYTFREAGLTPGREWLDSVMPHRPVALLDRMWGTMMVNSKALELAGIDRHTSDPRNGYLERDELTGEPNGLLIDGAYALIHAAMPPTPVSVLRRAYRDGVHFQTSRGVTATKYVHVCENRLQALKELDDAGELTLRVEAAISWQDDIFPVRRRWELLSGERHFYRSARLSANAVKFHFDGTVEPKSSYLLTPWPEESSWRGKLNLTPEHITDMVVDMDKRGLRVIAHCTGDGASDVFLDAVAEARRRNGNSGIRHQCAHSTLLHPGNLKRFQALDVIAEFSPAAWYPTPFASGARSGYGQERLKRIYDFKGVLAAGGIAVFGTDWPVASIDPWLALETMVTRQNPWNQEPDTFGDPISLEQALQVATLNGAHAMGLEHLTGSLEAGKSADLIVLDRDLFAQGARNYIHHTQVQLTFVEGQLVYDRQGTEGHHHHHH", "soluble on expression in E. coli": "not soluble"}, {"sequence": "MSLTASSSEEKADKSQELVIYSNSVSNGRGDWLTAKAKEAGFNIKMVDIAGAQLADRVIAEKNNAVADMVFGIGAVDSNKIRDQKLLVQYKPKWLDKIDQSLSDKDNYYNPVIVQPLVLIGAPDVKEMPKDWTELGSKYKGKYSIYGLQGGTGRAILASILVRYLDEKGDLGVSEKGWEVAKEYFANAYTLQKGESSVVKALDKESPIQYGMIWGSGALIGQKEQNVEFKVMTPEIGVPFVTEQTMVLSTSKKQALAKEFIDWFGQSEIQVEYSKKFGSIPANKDALKELPEDTKKFVDQVKPQNIDWEAVGKHLDEWVEKAELEYVKEGHHHHHH", "soluble on expression in E. coli": "soluble"}]}]}
